Reference: the RNAGym collection of RNA variant scans (doi:10.1093/nar/gkz1192)

B1: CPEB3 Ribozyme (parent)
chain: UAACAGGGGGCCACAGCAGAAGCGUUCACGUCGCAGCCCCUGUCAGAUUCUGGUGAAUCUGCGAAUUCUGCUGUAUAUCUC

Variants of: B1
Test: self-cleavage, relative activity (ratio to wild type); higher = more cleavage; in vitro, sequencing
In short: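 Barcoded CPEB3 ribozyme mutants, produced by rounds of error-prone PCR, self-cleaved while being transcribed with T7 RNA polymerase for 5 hours at 37°C and during a subsequent 15 min DNase I step before EDTA was added. Sequencing of template-switched cDNA on Illumina gave cleaved and total reads, and DNA sequencing assigned barcodes to variants. Each variant's relative activity is its cleaved/total read fraction divided by the unmutated ribozyme's fraction, averaged across three batches. A variant needed a minimum of 5 reads.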

Point of comparison: G8U U66G, self-cleavage 0.13. Against it:
- G9A C32U — higher, 0.2
- G9A C79U — higher, 0.16
- G9A G63A — lower, 0.12
- G8C U66C — higher, 0.41
- G8C U76C — higher, 0.4
- G8U U69C — lower, 0.09
- G8U U69A — lower, 0.12
- G7U U66C — higher, 0.17
- G8U G53A — higher, 0.2
- G8U G53U — lower, 0.12
- G9A C34A — higher, 0.2
- G8A C23U — lower, 0.07
- G8A C23A — lower, 0.06
- G8U C38U — lower, 0.04
- G8C C32U — higher, 0.2
- G8U U78C — higher, 0.17
- G8U U78A — higher, 0.21
- G8U A21U — higher, 0.17
- G8A U80A — higher, 0.29
- G8A U80C — higher, 0.19
- G8C A18U — higher, 0.23
- G8C A18G — higher, 0.27
- G8A U54A — lower, 0.08
- G8A U54C — higher, 0.14
- G9A G61A — lower, 0.06
- G9A G33A — lower, 0.08
- G8A A77U — higher, 0.18
- G8A A77C — lower, 0.09
- G8A A77G — higher, 0.23
- G9A — higher, 0.29
- G8C G55A — higher, 0.37
- G8A U72A — lower, 0.07
- G8A U72C — higher, 0.26
- G8A U72G — lower, 0.12
- G8A U67A — higher, 0.26
- G8A U67G — higher, 0.48
- G8A U67C — higher, 0.22
- G8C A15C — higher, 0.29
- G8U C29U — higher, 0.25
- G9A G24A — higher, 0.22
- G9A G24C — higher, 0.2
- G9A C81U — higher, 0.35
- G8U U76C — the same, 0.13
- G8U U76A — higher, 0.28
- G8U C40U — lower, 0.11
- G8C A64U — higher, 0.22
- G7U U72C — higher, 0.25
- G7U U72G — lower, 0.07
- G8U G55U — higher, 0.2
- G8A U58C — higher, 0.2
- G9A U43C — higher, 0.29
- G9A U43A — higher, 0.39
- G9A U43G — higher, 0.22
- G8A C71U — higher, 0.21
- G8A C71A — higher, 0.17
- G8C U31C — higher, 0.38
- G8C U31G — higher, 0.34
- G8A G22A — higher, 0.27
- G8A U31C — higher, 0.24
- G8A U31G — higher, 0.41
- G8A U31A — higher, 0.18
- G8A U43A — higher, 0.27
- G8A U43C — higher, 0.14
- G8A U69A — higher, 0.28
- G8A U69G — higher, 0.28
- G8A U69C — higher, 0.19
- G9A U48C — higher, 0.36
- G9A A21G — higher, 0.19
- G9A A21C — lower, 0.06
- G8U A56U — higher, 0.14
- G8A A20G — higher, 0.25
- G8A A20U — higher, 0.22
- G9A A57G — higher, 0.22
- G9A A57U — higher, 0.15
- G9A A28U — higher, 0.22
- G9A A28G — higher, 0.24
- G9A A28C — higher, 0.2
- G8A A21G — higher, 0.28
- G9A A35G — higher, 0.66
- G9A A35U — higher, 0.18
- G8A C44U — lower, 0.08
- G8A C44A — higher, 0.26
- G8A C40U — higher, 0.14
- G8A C40A — higher, 0.16
- G8U U72A — lower, 0.07
- G8U U72C — higher, 0.15
- G8U C11U — lower, 0.1
- G8U U60C — higher, 0.17
- G8U U60G — lower, 0.06
- G8U U60A — lower, 0.07
- G8U G10A — higher, 0.39
- G8A C79A — higher, 0.18
- G8A C27U — lower, 0.08
- G9A G16A — higher, 0.17
- G7U U69A — higher, 0.2
- G7U U69C — higher, 0.19
- G8A G70A — lower, 0.05
- G8U U26C — higher, 0.14
- G8U U26A — lower, 0.07
- G8C A65G — higher, 0.38
- G8C C23A — higher, 0.3
- G8U G24U — the same, 0.13
- G8U G24A — higher, 0.16
- G8C G73U — higher, 0.25
- G8A U51C — higher, 0.21
- G8A U51G — lower, 0.09
- G8A U51A — higher, 0.24
- G8U C14U — lower, 0.06
- G8U U58A — higher, 0.32
- G8U U58C — lower, 0.1
- G8A C59A — lower, 0.06
- G9A G42A — higher, 0.3
- G8U A35U — higher, 0.27
- G8U C59U — lower, 0.1
- G8U U80G — higher, 0.2
- G8U U80C — higher, 0.16
- G8U U80A — higher, 0.2
- G9A A56U — higher, 0.23
- G9A A56G — higher, 0.18
- G9A A56C — higher, 0.24
- G9A G55C — higher, 0.24
- G8C U26C — lower, 0.08
- G8U A28G — higher, 0.14
- G8U A28U — lower, 0.09
- G8C A56G — higher, 0.17
- G8A G19A — lower, 0.06
- G8A C34U — higher, 0.39
- G8A U60C — higher, 0.23
- G8A U60A — higher, 0.18
- G9A C40U — lower, 0.08
- G8A A57U — lower, 0.11
- G8A A57G — higher, 0.26
- G8U C79U — lower, 0.04
- G9A G22C — higher, 0.32
- G8U A45G — higher, 0.14
- G9A A15U — higher, 0.15
- G9A A15G — higher, 0.3
- G8U A18U — higher, 0.16
- G8U A18G — higher, 0.14
- G8U A64G — higher, 0.2
- G8U A64U — lower, 0.08
- G8U A64C — lower, 0.12
- G8A A18G — higher, 0.21
- G8A A18U — lower, 0.07
- G8C U69C — higher, 0.22
- G8A G63C — higher, 0.19
- G8U U49C — higher, 0.22
- G8U U49A — higher, 0.28
- G8U U54C — higher, 0.14
- G8U U54A — lower, 0.07
- G8U U48C — higher, 0.38
- G8C U43C — higher, 0.4
- G8A G24A — lower, 0.08
- G8C C38U — lower, 0.07
- G8U G73C — higher, 0.5
- G8A G73A — higher, 0.18
- G8A C68A — higher, 0.2
- G8U U51C — lower, 0.08
- G8U U51A — lower, 0.08
- G8U U31C — lower, 0.11
- G8U U31A — higher, 0.18
- G7U U67C — higher, 0.25
- G8U A15U — higher, 0.4
- G8U A15G — higher, 0.24
- G8A C14U — lower, 0.08
- G8A C14G — higher, 0.38
